Where two headings read alike, the source gives them in different places.
How the values were obtained:
Settings in all cases: 50 nM enzyme, 2 mM NADPH, 50 mM potassium phosphate pH 6.5, 35 °C, 5 min, with yeast P450 reductase
[1] = biological target: CYP3201B1 (Chamberlinius hualienensis, UniProt A0A1J1DVP9)
[2] = tested on: Cc1cccc(CC#N)c1; test: cells, lysate or membranes
[3] = tested on: Cc1ccccc1CC#N; test: cells, lysate or membranes

Sequence of CYP3201B1 (A0A1J1DVP9 1-501 limits assumed): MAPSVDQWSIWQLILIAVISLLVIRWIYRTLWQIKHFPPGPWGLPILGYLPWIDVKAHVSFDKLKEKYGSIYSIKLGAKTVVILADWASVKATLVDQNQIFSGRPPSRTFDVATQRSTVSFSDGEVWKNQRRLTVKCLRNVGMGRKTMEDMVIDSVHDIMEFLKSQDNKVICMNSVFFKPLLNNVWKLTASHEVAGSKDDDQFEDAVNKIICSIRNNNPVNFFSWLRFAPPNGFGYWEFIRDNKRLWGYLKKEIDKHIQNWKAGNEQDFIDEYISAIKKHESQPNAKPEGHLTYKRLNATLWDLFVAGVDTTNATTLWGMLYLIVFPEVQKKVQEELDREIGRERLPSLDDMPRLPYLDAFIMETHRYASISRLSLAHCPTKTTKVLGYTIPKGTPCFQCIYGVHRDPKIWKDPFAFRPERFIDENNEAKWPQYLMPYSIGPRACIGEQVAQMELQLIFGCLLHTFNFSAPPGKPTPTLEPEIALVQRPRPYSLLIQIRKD

N#CCc1ccccc1 [PAN]
Km ([1]; product (R)-mandelonitrile): 9.2 ± 2.3 µM

CYP3201B1 (Chamberlinius hualienensis)
Km [2]: 6.9 ± 1.3 µM
kcat [2]: 1.09 ± 0.0433 s⁻¹
kcat/Km [2]: 158000 M⁻¹ s⁻¹
Km [3]: 6.6 ± 1.6 µM
kcat [3]: 1.12 ± 0.07 s⁻¹
kcat/Km [3]: 170000 M⁻¹ s⁻¹

N#CCc1ccc(O)cc1 [4‐HydroxyPAN]
Km [1]: 15.8 ± 1.2 µM

Reference: paper PMC5337904, “A novel cytochrome P450, CYP3201B1, is involved in (R)‐mandelonitrile biosynthesis in a cyanogenic millipede” (FEBS Open Bio, 2017)
